Measured values reported in the supplement of paper PMC10567573.
± gives the standard deviation.

Assay: protein stability index of a GFP-peptide fusion (GPS, HEK-293T) (PSI 1-6); higher = more stable
[1] = treatment: DMSO, c terminus: a fixed tail appended
[2] = treatment: MLN4924 1 uM, 8 h, c terminus: a fixed tail appended
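Also: 24-mer peptide tiles fused after GFP, lentivirally expressed, FACS-sorted into six equal bins by GFP/DsRed ratio, decoded by Illumina sequencing, PSI is the read-weighted mean bin number.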

Sequence | protein stability index [1] | protein stability index [2] | protein stability index (treatment: DMSO, c terminus: native) | protein stability index (treatment: MLN4924 1 uM, 8 h, c terminus: native)
LSWFILHARYRVIHFIAVAVCLLG [SLC35F2] | 2.49 ± 0.12 | 2.83 ± 0.91 | – | –
LTEAEGWHFFCFQGEATRKLAGK [SAT2] | – | – | 2.69 ± 0.29 | 3.02 ± 0.49
LTEIYRIVSQKQMSDRRENDMSPS [RAB11A] | 3.54 ± 0.2 | 3.81 ± 0.12 | – | –
LTHFSRRYCQCNPDDSTSEDGIHT [PSD2] | 3.6 ± 0.27 | 3.77 ± 0.3 | – | –
LTLSGIKEDNSLLNQGFLQAKPEK [MYBL2] | 4.53 ± 0.39 | 4.61 ± 0.099 | – | –
LTYACENGHTDVADVLLQAGADLE [ANKRD17] | 4.3 ± 0.16 | 4.68 ± 0.35 | – | –
LVADLLYWKDTRTSGVVFTGLMVS [RTN2] | 3.17 ± 0.46 | 3.03 ± 0.4 | – | –
LVELPASFRELLTFFCTNATIHGA [SCNN1D] | 2.79 ± 0.38 | 2.63 ± 0.49 | – | –
LVETAIQSLDEPGGATFLLTAKQL [TRIM63] | 2.75 ± 0.14 | 2.66 ± 0.45 | – | –
LVMASLYHIYVALEEEIERNKESP [HMOX1] | 2.27 ± 0.19 | 2.22 ± 0.44 | – | –
LVPALRLPGRKLVSSAVSPSIIPQ [INTS4] | 2.48 ± 0.31 | 2.46 ± 0.26 | – | –
LVSIRNNRNLQKFSLFGDISVLQQ [FBXO33] | 2.17 ± 0.14 | 2.09 ± 0.29 | – | –
LVSPSNNSKEDAFSGTDWMLEKMD [ATF4] | 4.66 ± 0.26 | 4.64 ± 0.23 | – | –
LVWLVRELVKSGVLGADGVCMTFM [INTS3] | 2.17 ± 0.54 | 2.22 ± 0.84 | – | –
MAAEIQPKPLTRKPILLQRMEGSQ [WDFY2] | 4.05 ± 0.27 | 3.8 ± 0.38 | – | –
MAETVADTRRLITKPQNLNDAYGP [SNX3] | 3.95 ± 0.25 | 4.17 ± 0.15 | – | –
MANQEAAIQAFLDKCSAPKIWRTP [IQUB] | 3.11 ± 0.14 | 3.16 ± 0.34 | – | –
MATITCTRFTEEYQLFEELGKGAF [CAMK2A] | 2.35 ± 0.23 | 2.44 ± 0.4 | – | –
MAVAQQLRAESDFEQLPDDVAISA [NCF4] | 4.89 ± 0.27 | 4.88 ± 0.19 | – | –
MCSTLEHNCAHFCINIPGSYVCRC [MATN2] | 3.18 ± 0.33 | 3.19 ± 0.44 | – | –
MCYRVRWEEAAPGRAVEHAMFLGD [MYORG] | 2.27 ± 0.18 | 2.34 ± 0.47 | – | –
MEGDGGTPWALALLRTFDAGEFTG [RIPK4] | 2.11 ± 0.16 | – | – | –

Sequence | protein stability index [1] | protein stability index [2] | protein stability index (treatment: DMSO, c terminus: native) | protein stability index (treatment: MLN4924 1 uM, 8 h, c terminus: native)
MELGGHWDMNSAPRLVSETAERKQ [MFSD9] | 4.98 ± 0.11 | 4.98 ± 0.2 | – | –
MELGPEPPHRRRLLFACSPPPASQ [CDC25A] | 3.57 ± 0.2 | 3.47 ± 0.17 | – | –
MELPSGPGPERLFDSHRLPGDCFL [AUP1] | 3.36 ± 0.36 | 3.27 ± 0.35 | – | –
MENLLQATKSHVDKVIMKLGKTNA [DYNC2LI1] | 3.24 ± 0.28 | 3.34 ± 0.38 | – | –
MEPGGARLRLQRTGGLGGERERQP [SOAT2] | 4.58 ± 0.12 | 4.65 ± 0.21 | – | –
MEREFNNLLALGTDRKLDDGDDKV [PPFIA4] | 5.47 ± 0.32 | 5.34 ± 0.58 | – | –
MGREKCHQYWPAERSARYQYFVVD [PTPRD] | 2.3 ± 0.34 | 2.33 ± 0.14 | – | –
MIAFFFIIIYLGPMVLMIIVMCVQ [CDS2] | 3.3 ± 0.31 | 3.12 ± 0.93 | – | –
MIIEHKIVIADVKLVADFQRYILY [ZNF277] | 3.58 ± 0.73 | 2.74 ± 1.1 | – | –
MKSYSFLREAVPGILRARRGEGIQ [SOAT2] | 2.54 ± 0.2 | 2.77 ± 0.39 | – | –
MLQEQLDAINEEIRMIQEEKESTE [PPFIA4] | 4.75 ± 0.41 | 4.84 ± 0.11 | – | –
MNQTCCPQYTIRCRPLQFQPSKSH [ATE1] | 2.06 ± 0.27 | 2.1 ± 0.25 | – | –
MPCTWVMACAYAPSGCAIACGGLD [GNB5] | 2.77 ± 0.53 | 2.88 ± 0.4 | – | –
MPEERASKYENYFSASERLSLKRE [HESX1] | 4.41 ± 0.51 | 4.75 ± 0.31 | – | –
MPSETLWEIAKAEVEKRGINGSEG [DYNC2LI1] | 4.88 ± 0.15 | 5.1 ± 0.1 | – | –
MPTGPPEDRLSLKFLPSSEEDNDD [DRICH1] | 5.47 ± 0.2 | 5.59 ± 0.15 | – | –
MSERLRPRKRRRNGNEEDNHLPPQ [FAM104A] | 5.3 ± 0.14 | 5.39 ± 0.14 | – | –
MSRSGDRTSTFDPSHSDNLLHGLN [KLHL14] | 4.13 ± 0.24 | 4.09 ± 0.26 | – | –
MSYFGEHFWGEKNHGFEVLYHSVK [FCHO1] | 2.59 ± 0.24 | 2.11 ± 0.16 | – | –
NAESSKTWLKGKFTELRLLLDEEE [TRIM14] | 4.14 ± 0.34 | 4.41 ± 0.47 | – | –
NAGISFSVKKQGETVADVRTLPNA [MLH1] | 4.37 ± 0.46 | 4.11 ± 0.1 | – | –
NCSDFLESKGCFANTTPSGKSVSS [SPATS1] | 4.15 ± 0.2 | 4.35 ± 0.17 | – | –

Sequence | protein stability index [1] | protein stability index [2] | protein stability index (treatment: DMSO, c terminus: native) | protein stability index (treatment: MLN4924 1 uM, 8 h, c terminus: native)
NDDSADYQHFLQDCVDGLFKEVKE [DLC1] | 2.96 ± 0.5 | 3.54 ± 0.62 | – | –
NGLTLLILGVIGLFTIPLLYRQHQ [RTN2] | 3.39 ± 0.37 | 2.93 ± 0.71 | – | –
NGVNVLDEPYEKVVDRIQSSGKNV [PDZK1] | 5.03 ± 0.3 | – | – | –
NHAPLREQGAIPRLVQLLVRAHQD [CTNNB1] | 2.91 ± 0.23 | 2.91 ± 0.19 | – | –
NIQIIEYEKKQTLGQNDTGFSCDG [BTBD1] | 4.36 ± 0.4 | 4.034 ± 0.016 | – | –
NKHLTTHQGIKPYKCSWCGKSFSQ [ZNF75A] | 2.35 ± 0.45 | 2.06 ± 0.37 | – | –
NKKNILLRLLREEEYVAPPRGPLP [TRAF3IP2] | 2.44 ± 0.25 | 3.06 ± 0.54 | – | –
NKRCKDKKKSILMKQLQQQQHSDK [ISL2] | 4.45 ± 0.18 | 4.5 ± 0.12 | – | –
NLANCERLIEVEDMMVMGRKPDPM [SMTNL2] | 3.36 ± 0.25 | 3.48 ± 0.31 | – | –
NLISLLALRVLAEQNIIPSATNVT [TENT5C] | 2.94 ± 0.39 | 3.12 ± 0.36 | – | –
NLKQLRKRGSIPTSLTALSLASAS [PPFIA4] | 3 ± 0.15 | 3.09 ± 0.24 | – | –
NLLQPNFEAAFGTTPSTSSSSSFD [SNAP91] | 4.11 ± 0.093 | 4.08 ± 0.046 | – | –
NLQELLELDSSSSLCVLVSTVGKL [CEP70] | 2.29 ± 0.49 | 2.43 ± 0.47 | – | –
NQLQYMQNVVVKTLWKHQFAWPFY [BRD3] | 3.03 ± 0.46 | 2.64 ± 0.36 | – | –
NSQVHRETEDVDYGETDFHKQDGK [TMEM40] | 5.54 ± 0.12 | 5.52 ± 0.17 | – | –
NSTQADEGKTKKGVLEAPDTQVNP [FBXO34] | 5.49 ± 0.19 | 5.41 ± 0.18 | – | –
NVEHYQELKKMVQQSDLGQYVTFL [ALG2] | 2.27 ± 0.12 | 2.43 ± 0.27 | – | –
NVLSDLYAMGITECDNMLMLLSVS [SEPHS2] | 2.93 ± 0.55 | 2.71 ± 0.42 | – | –
NWGQDPGVSANASKAWHQKSHFQN [PBXIP1] | 2.94 ± 0.5 | 3.43 ± 0.32 | – | –
PALAPVPRNSCITCPQCHRSLILD [TRIM9] | 3.31 ± 0.3 | 3.37 ± 0.33 | – | –
PANTQINDIRIFLEKVLEENAQKK [VPS39] | 3.73 ± 0.22 | 3.61 ± 0.36 | – | –
